Data from patent publication US20070212341A1, “Method for Preparing Active Kinases Containing Ph Domains” (priority 2004, published 2007).

Test system: histone 2B
Experiment: Kinase activity measurement (histone 2B phosphorylation, [33P]ATP flashplate)
Assay type: biochemical
Protocol: Another possibility of detecting the enzymic activity of Akt is that of incubating 100 ng of Akt, at 30° C. for 80 min, with 100 ng of histone 2B in a buffer composed of 50 mM Hepes (pH 7.5), 3 mM MgCl2 and 3 mM MnCl2, 3 μM sodium vanadate, 1 mM DTT, 1% DMSO, 100 nM ATP and 0.16 nM [^33P]-ATP. After stopping the reaction with phosphoric acid and washing with water, the incorporated cpm [counts per minute] are then determined, in a flashplate (NEN) in a Wallac Trilux measuring instrument, as a measure of the phosphorylation of the histone 2B. In this measuring instrument, the quantity of light which was generated from the radioactive decay by the scintillation gel present in the wells is measured quantitatively. It is a direct measure of the degree of phosphorylation of the Akt substrate employed.
In order to measure the kinase activity of truncated Akt1 (Akt1ΔPH) as well as of native Akt1, in each case 100 ng of Akt were incubated, at 30° C. for 80 min, with 100 ng of histone 2B in a buffer comprising 50 mM Hepes, pH 7.5, 3 mM MgCl2 and 3 mM MnCl2, 3 μM sodium vanadate, 1 mM DTT, 1% DMSO, 100 nM ATP and 0.16 nM [^33P]ATP. After the reaction had been stopped with phosphoric acid and the wells had been washed with water, the incorporated […], in a Wallac Trilux measuring instrument, as a measure of the histone 2B phosphorylation. In this measuring instrument, the quantity of light which was generated from the radioactive decay by the scintillation gel which was present in the wells was measured quantitatively. It is a direct measure of the degree of the phosphorylation of the Akt substrate employed.
Commercially obtainable wild-type Akt1 protein (Upstate Biochemicals, Charlottsville, Va., USA), which was likewise expressed in SF9 cells using the baculovirus system and then purified, was also used (results of the activity measurement in FIG. 1a, left-hand column).
The activity of an Akt derivative, which was expressed using the present method and obtained as an active kinase derivative, was compared with the activity of a commercially obtainable Akt1 enzyme (Upstate, Charlottsville, Va., USA). The activity of the commercially obtainable enzyme was obtained by expressing the enzyme, which contained the PH domain, in the baculovirus system and then purifying it. The enzyme was subsequently incubated with PDK1 in the presence of phosphatidylinositol […] lipid vesicles in order to phosphorylate Akt1 at threonine 308. After that, the activated Akt enzyme was separated chromatographically in order to separate it off from the activating PDK1 kinase. The enzyme activities of the two kinases were measured as described in Ex. 4.

[1] = FIG. 1a, 100 ng Akt, 100 ng histone 2B, 30° C., 80 min, expressed in SF9 cells

B1: PDK1-activated Akt1ΔPH: truncated Akt1 protein (amino acids 107-481, GST tag) without PH domain, activated by coexpression with truncated PDK1 in SF9 cells (protein)
chain: ADGLKKQEEEEMDFRSGSPSDNSGAEEMEVSLAKPKHRVTMNEFEYLKLLGKGTFGKVILVKEKATGRYYAMKILKKEVIVAKDEVAHTLTENRVLQNSRHPFLTALKYSFQTHDRLCFVMEYANGGELFFHLSRERVFSEDRARFYGAEIVSALDYLHSEKNVVYRDLKLENLMLDKDGHIKITDFGLCKEGIKDGATMKTFCGTPEYLAPEVLEDNDYGRAVDWWGLGVVMYEMMCGRLPFYNQDHEKLFELILMEEIRFPRTLGPEAKSLLSGLLKKDPKQRLGGGSEDAKEIMQHRFFAGIVWQHVYEKKLSPPFKPQVTSETDTRYFDEEFTAQMITITPPDQDDSMECVDSERRPHFPQFSYSASGTA
modifications: phosphorylated at threonine 308 and serine 473, as the filing says of the active form
Ex. 5, measured as described in Ex. 4
  kinase activity compared with commercially obtainable native Akt1 activated by subsequent phosphorylation by PDK1 in the presence of lipid vesicles: at least the same activity
[1]
  kinase activity (histone 2B phosphorylation) compared with Akt1ΔPH not activated by coinfection with PDK1-encoding baculoviruses: markedly higher activity
  kinase activity (histone 2B phosphorylation) compared with Akt kinase derivative containing the PH domain with threonine 308 and serine 473 replaced with aspartic acid: markedly higher activity
FIG. 1b, Ex. 4b, measured as in Ex. 4a
  kinase activity (histone 2B phosphorylation) compared with commercially obtainable wild-type Akt1 not activated by coinfection with PDK1-encoding baculoviruses: markedly higher activity
